{"source": "paper PMC3879356", "molecular_target": "cytosolic domain of CAML (CAMLcyt), GST-tagged", "experiment": "SPR; WRBcc or CAMLcyt immobilised on a HC1000m sensorchip (Reichert SR7000DC); analyte TRC40wt or TRC40wt/RAMP4 in PBS, 15°C, 40 µl/min, injected 270 s, dissociation 12 min; average of three independent measurements", "data": [{"substance": "TRC40/RAMP4 complex (MBP-TRC40/HZZ-RAMP4op protein complex) (from UniProt O43681 1-348; Q9Y6X1 1-66)", "values": [{"measurement": "Kd", "value": 34, "unit": "nM"}]}]}
